In patent US20040009913A1, “Use of serum response factor (srf) modulator for treating srf related diseases” (priority 2000, published 2004):

How the values were obtained:
monolayer ES cells = test: In vitro differentiation of monolayer ES cells, RT-PCR of differentiation marker genes; format: cell-based, mouse; details: SRF-containing (Srf(−/+)) ES cells in monolayer, LIF withdrawal plus agent
Protocol: In vitro differentiation conditions. For differentiation experiments, cells were seeded in monolayers on gelatin-coated dishes and kept overnight in complete medium. The first day after seeding was defined to be day 0 of differentiation. The medium was then exchanged by complete medium lacking LIF or complete medium without LIF, but containing either 0.8% dimethylsulfoxide (DMSO) or 5×10^−7 M all-trans RA, respectively. Medium was exchanged daily and cells were harvested at the indicated time points for RT-PCR analysis. The vitality was determined by trypan blue staining. The vitality of detached cells was less than 5%.
Total RNA preparation (RNeasy kit, QUIAGEN) and first strand cDNA synthesis (Superscript II, Gibco) were done according to the manufacturers protocols. 1 μg of total RNA treated with DNAse I was used for reverse transcription. […] For quantitative analysis, SYBR Green PCR technology was used (Perkin Elmer). Real time detection of the PCR product was monitored by measuring the increase in fluorescence caused by the binding of SYBR Green to double-stranded DNA with ABI PRISM 7700 Sequence Detector. In order to do relative quantification, a threshold cycle (Ct), the cycle at which a statistically significant increase in fluorescence occurs, was derived from the resulting PCR profiles of each sample. […] The relative quantitation value is expressed as […]. […]

Srf(−/−) ES cells = test: F-actin / stress fiber immunofluorescence and cell morphology after transient transfection of ES cells; format: cell-based, mouse
Protocol: Alternatively, the cells were grown on gelatine-coated coverslips in complete growth medium for 48 hours, or as EBs in droplets for up to 8 days. The samples were then fixed in 4% formaldehyde and permeabilized in 0.2% Triton-X 100. Non-specific binding was blocked by incubating the cells for one hour in 1% BSA in PBS at 37° C. before staining with primary antibodies for 1 hour at 37° C. Incubation with fluorescence conjugated secondary antibodies (Molecular Probes, 1:200 in 0.2% BSA) was performed for 30 min at 37° C. To visualize filamentous actin, 1 unit Oregon-green phalloidin was included into the mixture. Coverstips were washed four times with PBS, once in water, air-dried and mounted in Moviol. Image acquisition was done with LSM 510 (Zeiss).
(C) SRF-VP16 expression leads to increased stress fiber formation. […] ES cells were transiently transfected with SRF-VP16 (upper panel) and the SRF-M-VP16 control construct (lower panel) and processed for immunofluorescence analysis three days later. […]
SRF-VP16 fusion proteins were previously used to drive SRF-dependent transcription independent of upstream signalling cascades (Hines et al., 1999; Johansen and Prywes, 1994;Treisman et al., 1992). […] Undifferentiated ES cells were transiently transfected with SRF-VP16 and SRF M-VP16 expression vectors, and RNA expression levels were measured by quantitative RT-PCR (FIG. 17B). […]

C[S+](C)[O-] [DMSO, dimethylsulfoxide]
timing of mesodermal marker gene induction versus LIF withdrawal alone (monolayer ES cells): earlier induction

B1: zyxin: focal adhesion protein transiently overexpressed in Srf(−/−) ES cells (protein, UniProt Q15942 2-572, looked up)
Zyxin: AAPRPSPAISVSVSAPAFYAPQKKFGPVVAPKPKVNPFRPGDSEPPPAPGAQRAQMGRVGEIPPPPPEDFPLPPPPLAGDGDDAEGALGGAFPPPPPPIEESFPPAPLEEEIFPSPPPPPEEEGGPEAPIPPPPQPREKVSSIDLEIDSLSSLLDDMTKNDPFKARVSSGYVPPPVATPFSSKSSTKPAAGGTAPLPPWKSPSSSQPLPQVPAPAQSQTQFHVQPQPQPKPQVQLHVQSQTQPVSLANTQPRGPPASSPAPAPKFSPVTPKFTPVASKFSPGAPGGSGSQPNQKLGHPEALSAGTGSPQPPSFTYAQQREKPRVQEKQHPVPPPAQNQNQVRSPGAPGPLTLKEVEELEQLTQQLMQDMEHPQRQNVAVNELCGRCHQPLARAQPAVRALGQLFHIACFTCHQCAQQLQGQQFYSLEGAPYCEGCYTDTLEKCNTCGEPITDRMLRATGKAYHPHCFTCVVCARPLEGTSFIVDQANRPHCVPDYHKQYAPRCSVCSEPIMPEPGRDETVRVVALDKNFHMKCYKCEDCGKPLSIEADDNGCFPLDGHVLCRKCHTARAQT
rescue of defective actin cytoskeleton (Srf(−/−) ES cells; transient overexpression in Srf(−/−) ES cells): did not rescue the defective actin cytoskeleton

B2: wildtype SRF protein: wildtype serum response factor reintroduced by expression vector (protein, UniProt P11831 1-508, looked up)
Serum response factor: MLPTQAGAAAALGRGSALGGSLNRTPTGRPGGGGGTRGANGGRVPGNGAGLGPGRLEREAAAAAATTPAPTAGALYSGSEGDSESGEEEELGAERRGLKRSLSEMEIGMVVGGPEASAAATGGYGPVSGAVSGAKPGKKTRGRVKIKMEFIDNKLRRYTTFSKRKTGIMKKAYELSTLTGTQVLLLVASETGHVYTFATRKLQPMITSETGKALIQTCLNSPDSPPRSDPTTDQRMSATGFEETDLTYQVSESDSSGETKDTLKPAFTVTNLPGTTSTIQTAPSTSTTMQVSSGPSFPITNYLAPVSASVSPSAVSSANGTVLKSTGSGPVSSGGLMQLPTSFTLMPGGAVAQQVPVQAIQVHQAPQQASPSRDSSTDLTQTSSSGTVTLPATIMTSSVPTTVGGHMMYPSPHAVMYAPTSGLGDGSLTVLNAFSQAPSTMQVSHSQVQEPGGVPQVFLTASSGTVQIPVSAVQLHQMAVIGQQAGSSSNLTELQVVNLDTAHSTKSE
effects on gene expression and cytoskeletal rearrangements (Srf(−/−) ES cells; reintroduction by transient transfection): only minor effects
